Measurements: patent US20240209089A1 (SUZHOU SMARTNUCLIDE BIOPHARMACEUTICAL, published 2024)
Numbering of substitutions follows the chain as printed. Values joined by “and” are separate entries in the source; they are usually repeats but may differ in a detail not shown here. Equal values may be shown once. One block for each binder: values may come before it.

Assays:
[1] = target: T1, CD8α-Fc fusion protein (human); assay: ELISA on coated CD8α-Fc; C2-cHis is the control (=100)
T1 construct: also called CD8 α-Fc protein; CD8α-Fc tag antigen
T1 sequence (chain, as listed by the source): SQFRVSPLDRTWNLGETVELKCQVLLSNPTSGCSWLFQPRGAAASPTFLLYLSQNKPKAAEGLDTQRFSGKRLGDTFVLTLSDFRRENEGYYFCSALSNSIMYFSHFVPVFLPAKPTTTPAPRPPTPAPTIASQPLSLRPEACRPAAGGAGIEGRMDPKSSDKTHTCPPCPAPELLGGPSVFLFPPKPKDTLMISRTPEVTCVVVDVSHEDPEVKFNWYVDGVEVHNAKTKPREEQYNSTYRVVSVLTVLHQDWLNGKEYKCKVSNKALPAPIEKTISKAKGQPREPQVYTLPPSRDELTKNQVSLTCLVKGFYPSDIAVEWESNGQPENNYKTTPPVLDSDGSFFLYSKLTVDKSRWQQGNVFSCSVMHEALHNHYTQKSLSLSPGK
Experimental: (§1) The CD8 α-Fc protein was transiently expressed by HEK293 and purified by protein A affinity chromatography. The plate was coated with the obtained CD8α-Fc protein in a concentration of 0.5 μg/well at 4° C. overnight, and then the gradient dilution series of the obtained anti-CD8α single domain antibody protein was added to react for 1 hour at room temperature. After washing, anti-his horseradish peroxidase labeled antibody was added to react for 1 hour at room temperature. After washing, a chromogenic solution was added, and an absorption value at 450 nm was read. The data processing and plotting analysis were performed by using software SotfMaxPro v5.4. […] Of the 10 selected antibodies (see Table 5 for details), the relative activities of different anti-CD8α single domain antibodies were compared by using C2-cHis as control, so as to reflect the affinity of the antibodies on CD8α. Of the 10 tested antibodies, C37, C42, C46, S5 and S36 have relatively high binding activity.

[2] = target: T2, human CD8α full-length protein (human, UniProt P01732 22-235); assay: flow cytometry on MC38-CD8α cells, secondary antibody-PE
T2 construct: whole, on cells; The same entry is used for MC38-CD8α transfectants and for human CD8+ T cells from peripheral blood; the assay field says which cells; also called cell surface CD8α; MC38-CD8α cells
T2 sequence (P01732 22-235): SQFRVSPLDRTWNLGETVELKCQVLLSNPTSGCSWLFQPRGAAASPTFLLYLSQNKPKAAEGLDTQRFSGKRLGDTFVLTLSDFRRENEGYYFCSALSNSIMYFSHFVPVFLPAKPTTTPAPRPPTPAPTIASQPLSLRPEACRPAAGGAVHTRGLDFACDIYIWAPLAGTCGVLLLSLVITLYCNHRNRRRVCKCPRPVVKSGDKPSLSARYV
Experimental: Mouse colon cancer MC38 cell lines stable transfected with human CD8α full-length protein gene were constructed to obtain MC38 cells (MC38-CD8α cells) stably expressing human CD8α proteins on the cell membrane. Prior to use, the cells were cultured to >90% convergence. The anti-CD8α single domain antibody was used to perform flow cytometry on these cells for quantitative analysis of indirect immunofluorescence staining so as to determine the quantity of receptors on surface of each cell.
The cells were collected and suspended to a concentration of 2.5×10⁶ cells/mL. 200 μL of cell aliquot samples were mixed with 20 μL of primary antibody, and the obtained mixture was incubated for 30 min on ice. The cells were centrifuged, washed and re-suspended, then 5 μL of secondary antibody-PE conjugate was added, and then the above mixture was incubated for 30 minutes on ice. The cells were washed twice, re-suspended and underwent flow cytometry on BD FACSCelesta™. For each tube, at least 5×10⁴ events were collected. All the analyses were single colors, and PE was detected in […].

[3] = target: T1, CD8α-Fc fusion protein; assay: ELISA on coated CD8α-Fc, anti-his-HRP, four-parameter fit
Experimental: as §1

[4] = target: T2, human CD8α full-length protein; assay: competition radioligand binding on MC38-CD8 cells, 2 h at 4 °C; unlabeled SNA006a varied against the tracer 125I-SNA006a
Experimental: (§2) The 96-well cell suction filter plate was saturated with a binding buffer and dried in air before use.
(§3) After reaction for 2 hours at 4° C., the reaction solution in the suction filter plate was drained using auxiliary equipment of a vacuum pump and the suction filter plate, 200 μL of PBS buffer (0.01 M, pH=7.4) was added into each well and drained, and the cells were repeatedly washed for 6 times. After the filter membrane at the bottom of the suction filter plate was dried, the filter membrane at the bottom was collected, and a γ counter was used for measurement. Calculation and plotting were performed by using Prism 7.0 (GraphPad Software, Inc.), and the half inhibition concentration IC50 was calculated by nonlinear regression analysis. Four parallel samples were set at each experimental point, and the experiment was repeated twice. The result given in this experiment is an average value plus a standard deviation.

[5] = target: T1, CD8α-Fc fusion protein; assay: ELISA on coated CD8α-Fc, antibody after exchange into NaHCO3 buffer, relative to the uncoupled antibody as standard
Experimental: (§4) By using PD-10 column (GE), the buffer of the CD8α-cHis single domain antibody (including C37, C46 and S5) was changed to a NaHCO3 buffer solution with a certain pH, and p-SCN-Bn-NOTA (Macrocyclics, article No. B-605) was dissolved into DMSO with a concentration of 25 mg/mL, and the p-SCN-Bn-NOTA solution whose molar was twice that of lysine on the single domain antibody was added into the CD8α single domain antibody, the above materials reacted for a certain time period at room temperature, the conjugated product was purified by PD-10 column (GE) and concentrated by ultrafiltration.
(§5) The activity of the above CD8α-NOTA after labeling was determined by ELISA. The specific method is as follows: the CD8α-Fc fusion protein was placed in the coated plate in a concentration of 5 μg/well at 4° C. overnight. After blocking with 3% BSA at 37° C., samples subjected to gradient dilution (the uncoupled CD8α single domain antibody was a standard substance) were added to act for 1 hour at 37° C. Then, anti-his-HRP (purchased from Abcam Company) was added to react for 1 hour at room temperature. Then, a chromogenic solution was added, and the absorption value at 450 nm was read.

[6] = target: T2, human CD8α full-length protein; assay: competition binding on MC38-CD8 cells, displacement of ^125I-SNA006a, 4 °C, 2 h
Experimental: as §2, §3

[7] = target: T1, CD8α-Fc fusion protein; assay: ELISA on coated CD8α-Fc, relative to C2-cHis control
Experimental: as §1

[8] = target: T3, CD8α-cHis fusion protein (UniProt P01732 22-182); assay: BLI (ForteBio Octet), biotinylated antibody on SA sensor, CD8α-chis 6.25-100 nM
T3 construct: not shown: C-terminal His tag
T3 sequence (P01732 22-182): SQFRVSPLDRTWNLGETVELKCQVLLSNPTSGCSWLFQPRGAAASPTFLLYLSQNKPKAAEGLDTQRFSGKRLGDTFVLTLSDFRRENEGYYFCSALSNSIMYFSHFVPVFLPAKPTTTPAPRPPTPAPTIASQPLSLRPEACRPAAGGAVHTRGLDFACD
Experimental: The anti-CD8α single domain antibody-biontin was fixed on an SA biological sensor. Then, CD8α-chis with a concentration of 6.25-100 nM bound to a nano antibody and then dissociated. The binding dynamic variables of four antibodies C37, C42, C46 and S5 were evaluated and determined by using Octet Data Analysis version 9.0, including Kon, Koff and Kd.

[9] = target: T1, CD8α-Fc fusion protein; assay: ELISA on coated CD8α-Fc, NOTA conjugate, relative to the uncoupled antibody as standard
Experimental: as §4, §5

[10] = target: T2, human CD8α full-length protein; assay: saturation radioligand binding on MC38-CD8 cells, 2 h at 4 °C, one-site fit; panel assigned through the KD of Table 8 (3.8 nM, 125I-SNA006c)
Experimental: (§6) Receptor binding reaction: a radioligand saturation method was used, total binding and non-specific binding groups were included.
(§7) The cells were incubated for 2 h at 4° C. After that, the supernatant was extracted, the cells were washed 6 times with PBS pre-cooled at 4° C., and 200 μL of PBS was added into each well every time. Finally, the filter membrane was collected, the radioactivity count of each tube of sample and standard sample was measured on the γ counter. Finally, saturation curve fitting was performed by using Prism 7.0 (GraphPad Software, Inc.) software according to the single-point binding model, and then KD and Bmax were calculated.

[11] = target: T2, human CD8α full-length protein; assay: radioligand saturation binding on MC38-CD8 cells, 4 °C, one-site fit
Experimental: as §6, §7

Relative activity (%) [1]: 100% | Positive rate (%) [2]: 99.9% | EC50 [3]: 2.2 ng/mL and 3.18 ng/mL and 4.11 ng/mL
B1: C2-cHis antibody (VHH)
VHH: QVQLVESGGGLVQPGGSLRLSCAASGFTLDYYAIGWFRQAPGKEREGISCIRIYDGNTYSAESVKGRFTISSDNAKNQVYLQINTLKPEDTAVYYCAAGSYYSCSVYPDYDMDYWGKGTLVTVSS
notes: HEK293 construct; An E. coli (PET22b) preparation is also described

IC50 [4]: 3.02 nM | IC50 (read off the curve) [4]: ~3 nM | Relative activity of CD8α-cHis-NaHCO3 (%) [5]: 76% | IC50 [6]: ~3 nM | Positive rate (%) [2]: 99.8% | Relative activity (%) [7]: 322% | EC50 [3]: 0.989 ng/mL | Kd [8]: 0.644 nM | koff [8]: 0.000311 s⁻¹ | kon [8]: 483000 M⁻¹ s⁻¹
B2: C37-cHis antibody (VHH)
VHH: B1 VHH with V2L, P14A, F27L, L29F, D30E, Y31D
notes: HEK293 construct; an E. coli preparation is also described; Biotinylated for the ForteBio assay; also called C37-his; SNA006a

Relative activity of CD8α-cHis-NOTA (%) [9]: 77%
B3: C37-cHis-NOTA (VHH)
VHH: B1 VHH with V2L, P14A, F27L, L29F, D30E, Y31D
modifications: p-SCN-Bn-NOTA coupled (lysine); sites and number not stated
notes: also called CD8α-cHis-NOTA (C37); NOTA-CD8α single domain antibody precursor

Relative activity of CD8α-cHis-NaHCO3 (%) [5]: 98% | Positive rate (%) [2]: 99.7% | Relative activity (%) [7]: 180% | EC50 [3]: 2.28 ng/mL | Kd [8]: 2.87 nM | koff [8]: 0.000445 s⁻¹ | kon [8]: 155000 M⁻¹ s⁻¹
B4: S5-cHis antibody (VHH)
VHH: QVQLVESGGGLVQAGGSLRVSCAASGGTFSSTAMGWFRQAPGKEREFVAAISWSGGYTYYADSVRGRFTISRDNALNTVSLQMNSLKPEDTAVYYCAADISGLDTVAAGIFTEPNIDYWGKGTLVTVSS
notes: HEK293 construct; an E. coli preparation is also described; Biotinylated for the ForteBio assay; also called SNA006d; SNA006-d

Relative activity of CD8α-cHis-NOTA (%) [9]: 105%
B5: S5-cHis-NOTA (VHH)
VHH: B4 VHH
modifications: p-SCN-Bn-NOTA coupled (lysine); sites and number not stated
notes: also called CD8α-cHis-NOTA (S5)

Kd [10]: 3.84 nM | Kd [11]: 3.8 nM
B6: ^125I-SNA006c (VHH)
VHH: QVQLVESGGGLVQAGGSLRLSCAASGVTFDDLAIGWFRQVPGKGREGVSTIGTSDGTAYYADSVKGRFTISSDNAKNTVYLQMNSLKPEDTAVYYCAVDLDYGLGSLLPMGYDYWGQGTQVTVSS
modifications: 125I label by the chloramine T method; labelled residues not stated

Relative activity of CD8α-cHis-NaHCO3 (%) [5]: 76% | Positive rate (%) [2]: 99.5% | Relative activity (%) [7]: 175% | EC50 [3]: 1.82 ng/mL | Kd [8]: 1.08 nM | koff [8]: 0.000271 s⁻¹ | kon [8]: 251000 M⁻¹ s⁻¹
B7: C46-cHis antibody (VHH)
VHH: B6 VHH
notes: HEK293 construct; an E. coli preparation is also described; Biotinylated for the ForteBio assay; also called SNA006c; SNA006-c

Relative activity of CD8α-cHis-NOTA (%) [9]: 20%
B8: C46-cHis-NOTA (VHH)
VHH: B6 VHH
modifications: p-SCN-Bn-NOTA coupled (lysine); sites and number not stated
notes: also called CD8α-cHis-NOTA (C46)
